Target: human Ob-Rb (human) (UniProt P48357)
Experiment: SPA displacement of [125I] leptin, Cos-7 cells transfected with human Ob-Rb

UniProt P48357, sequence (P48357 22-1165): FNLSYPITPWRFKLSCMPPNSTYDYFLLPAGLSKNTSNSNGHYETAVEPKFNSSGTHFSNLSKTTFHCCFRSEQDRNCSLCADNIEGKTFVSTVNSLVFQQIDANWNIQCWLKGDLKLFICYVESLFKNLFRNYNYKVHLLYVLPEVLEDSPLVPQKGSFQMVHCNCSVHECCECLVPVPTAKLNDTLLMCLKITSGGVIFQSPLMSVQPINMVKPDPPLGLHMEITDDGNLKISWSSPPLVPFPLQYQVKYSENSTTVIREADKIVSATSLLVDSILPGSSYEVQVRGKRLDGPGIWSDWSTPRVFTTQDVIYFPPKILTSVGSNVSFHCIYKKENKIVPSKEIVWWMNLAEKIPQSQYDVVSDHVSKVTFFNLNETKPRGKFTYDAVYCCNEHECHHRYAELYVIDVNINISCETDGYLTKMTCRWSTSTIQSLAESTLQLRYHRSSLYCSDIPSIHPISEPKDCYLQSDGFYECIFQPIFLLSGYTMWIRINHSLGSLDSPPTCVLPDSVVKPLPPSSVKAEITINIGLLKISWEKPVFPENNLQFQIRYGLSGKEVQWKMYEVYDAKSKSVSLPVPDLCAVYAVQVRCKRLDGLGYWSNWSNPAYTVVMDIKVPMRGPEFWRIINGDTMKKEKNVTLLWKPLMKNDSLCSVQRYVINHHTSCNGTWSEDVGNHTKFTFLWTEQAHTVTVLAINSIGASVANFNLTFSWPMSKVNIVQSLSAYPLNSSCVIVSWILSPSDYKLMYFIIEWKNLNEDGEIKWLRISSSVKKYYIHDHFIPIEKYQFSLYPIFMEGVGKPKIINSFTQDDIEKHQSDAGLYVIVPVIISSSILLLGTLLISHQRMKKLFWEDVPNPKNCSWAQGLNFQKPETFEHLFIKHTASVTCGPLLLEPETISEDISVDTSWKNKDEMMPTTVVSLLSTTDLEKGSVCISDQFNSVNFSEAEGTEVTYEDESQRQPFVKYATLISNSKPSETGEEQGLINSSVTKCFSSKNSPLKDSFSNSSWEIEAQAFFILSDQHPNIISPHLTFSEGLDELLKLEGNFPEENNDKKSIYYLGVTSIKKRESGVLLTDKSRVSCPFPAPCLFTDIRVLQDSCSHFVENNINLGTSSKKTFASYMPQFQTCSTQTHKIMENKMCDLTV

- IC50: 0.01 to 0.015 µM
Substance: leptin (unlabeled) (ligand)
